Patent US7888089B2, “eNOS mutations useful for gene therapy and therapeutic screening” (Yale University, priority 1999, dated 2011)
Several values for one entry are separate records, joined by “and”; a condition that tells them apart may be missing. Identical values can stand only once. Like-named read-outs stand apart in the source and are kept apart here.

Columns and labels:
cytochrome c = assay: NADPH-cytochrome c reductase activity of purified eNOS; type: biochemical; conditions: for EC50: cytochrome c reduction; for Km: Km for NADPH
Description: Assays for Reductase Activity—NADPH-cytochrome c reductase activity and 2,6-dichlorophenolindophenol (DCIP) reduction were measured as a change in absorbance at 550 nm as described previously by Martasek et al. (1999) and Masters et al. (1967) using an extinction coefficient of 0.021 μM^−1 cm^−1 for both cytochrome c and DCIP. Briefly, a reaction mixture (1 ml) contained either cytochrome c (90 μM); DCIP (36 μM), HEPES buffer (50 mM) at pH 7.6, NaCl (250 mM), NADPH (100 μM), calmodulin (120 nM), and CaCl2 (200 μM); or other substances as indicated. The reaction was monitored for 60 s (at 23° C.) after the addition of eNOS. When inactivation of reductase activity was determined by the addition of EGTA (200-800 μM), chelator was added 1 min after initiation of the reaction and monitored for an additional 1 min. The reaction contained HEPES buffer (50 mM) at pH 7.6, CaM (120 nM), and CaCl2 (200 μM) and was initiated with NADPH (100 μM). No NaCl was added in experiments that examined EGTA inactivation of eNOS to mimic the conditions used in the hemoglobin capture experiments. […] Determination of the calcium EC50 for eNOS was performed as described above for the hemoglobin capture assay.

eNOS [1] = assay: Conversion of L-arginine to L-citrulline by purified eNOS; type: biochemical, bovine; conditions: for Kcat (CaM, L-Citrulline): CaM activation of NOS activity
Description: The conversion of L-arginine to L-citrulline was assayed as described previously by Bredt et al. (1990). Briefly, eNOS (0.25-2 μg) was incubated for 3-10 min at 23° C. in the following reaction mixture: 3 pmol of L-[3H]arginine (55 Ci/mmol), 10-300 μM arginine, 1 mM NADPH, 120-200 nM calmodulin, 2 mM CaCl2, and 30 μM BH4 in a final reaction volume of 50-100 μl. The reaction was terminated by the addition of 0.5 ml of 20 mM HEPES, pH 5.5, containing 2 mM EGTA and EDTA. The reaction mixture was placed over Dowex AG50WX8, and the flow-through was counted on a Packard 1500 liquid scintillation analyzer.

eNOS [2] = assay: Hemoglobin capture assay of NO production by purified eNOS; type: biochemical, bovine; conditions: for Kcat (substrate Arginine, Hemoglobin capture): rate of NO production vs L-arginine, optimal conditions
Description: Assay for NOS Activity—NO production was measured by the hemoglobin capture assay as described (Kelm et al., 1988). Briefly, the reaction mixture contained eNOS (0.5-2.5 μg), oxyhemoglobin (8 μM), L-arginine (100 μM), BH4 (5 μM), CaCl2 (120 μM), calmodulin (120-200 nM), and NADPH (100 μM) in HEPES buffer (50 mM), pH 7.4. […] Under these conditions, free calcium was calculated using the WinMAXC program, version
NOS activity was monitored for linearity over 2 min at 401 nm, and NO production was calculated based on the change of absorbance using the extinction coefficient of 60 mM^−1 cm^−1. All reactions were carried out at 23° C., and each data point represents 3-8 observations. The extinction coefficient of 0.0033 μM^−1 cm^−1 at 276 nm was used for determination of calmodulin concentration. […] When the inactivation of eNOS was determined by the addition of EGTA (200-800 μM) to the reaction mixture, chelator was added 1 min after initiation of the reaction by NADPH. Identical conditions were used when NADPH-cytochrome c reductase activity was examined. These reactions contained CaM (120 nM) and CaCl2 (200 μM) in a 0.5-ml volume with eNOS (0.5 μg).

eNOS [3] = assay: NOS activity (3H-L-arginine to 3H-L-citrulline) in COS cell lysates; type: biochemical, bovine; conditions: COS cells transfected with eNOS only, n=3
Excerpt: NOS activity assays: The conversion of ^3H-L-arginine to ^3H-L-citrulline was used to determine NOS activity in COS cell or endothelial cell lysates as previously described by Garcia-Cardena et al. (1998).

B1: S1179D: bovine eNOS with serine 1179 mutated to aspartic acid (protein)
chain: GNLKSVGQEPGPPCGLGLGLGLGLCGKQGPASPAPEPSRAPAPATPHAPDHSPAPNSPTLTRPPEGPKFPRVKNWELGSITYDTLCAQSQQDGPCTPRCCLGSLVLPRKLQTRPSPGPPPAEQLLSQARDFINQYYSSIKRSGSQAHEERLQEVEAEVASTGTYHLRESELVFGAKQAWRNAPRCVGRIQWGKLQVFDARDCSSAQEMFTYICNHIKYATNRGNLRSAITVFPQRAPGRGDFRIWNSQLVRYAGYRQQDGSVRGDPANVEITELCIQHGWTPGNGRFDVLPLLLQAPDEAPELFVLPPELVLEVPLEHPTLEWFAALGLRWYALPAVSNMLLEIGGLEFSAAPFSGWYMSTEIGTRNLCDPHRYNILEDVAVCMDLDTRTTSSLWKDKAAVEINLAVLHSFQLAKVTIVDHHAATVSFMKHLDNEQKARGGCPADWAWIVPPISGSLTPVFHQEMVNYILSPAFRYQPDPWKGSATKGAGITRKKTFKEVANAVKISASLMGTLMAKRVKATILYASETGRAQSYAQQLGRLFRKAFDPRVLCMDEYDVVSLEHEALVLVVTSTFGNGDPPENGESFAAALMEMSGPYNSSPRPEQHKSYKIRFNSVSCSDPLVSSWRRKRKESSNTDSAGALGTLRFCVFGLGSRAYPHFCAFARAVDTRLEELGGERLLQLGQGDELCGQEEAFRGWAKAAFQASCETFCVGEEAKAAAQDIFSPKRSWKRQRYRLSTQAEGLQLLPGLIHVHRRKMFQATVLSVENLQSSKSTRATILVRLDTAGQEGLQYQPGDHIGICPPNRPGLVEALLSRVEDPPPPTESVAVEQLEKGSPGGPPPSWVRDPRLPPCTLRQALTFFLDITSPPSPRLLRLLSTLAEEPSEQQELETLSQDPRRYEEWKWFRCPTLLEVLEQFPSVALPAPLLLTQLPLLQPRYYSVSSAPNAHPGEVHLTVAVLAYRTQDGLGPLHYGVCSTWLSQLKTGDPVPCFIRGAPSFRLPPDPYVPCILVGPGTGIAPFRGFWQERLHDIESKGLQPAPMTLVFGCRCSQLDHLYRDEVQDAQERGVFGRVLTAFSREPDSPKTYVQDILRTELAAEVHRVLCLERGHMFVCGDVTMATSVLQTVQRILATEGDMELDEAGDVIGVLRDQQRYHEDIFGLTLRTQEVTSRIRTQDFSLQERHLRGAVPWAFDPPGPDTPGP
kcat for CaM activation of cytochrome c reduction, S1179D compared with wild type (cytochrome c): about 2 fold
Kcat (CaM, Cytochrome c) (cytochrome c; CaM activation of cytochrome c reduction): 19 s⁻¹ and 19 ± 1.25 s⁻¹
EC50 (cytochrome c; EC50 for CaM, listed as S1179D eNOS, read-out: EC50 (CaM, Cytochrome c)): 13 nM
EC50 (cytochrome c; EC50 for CaM, read-out: EC50 (CaM, Cytochrome c)): 21 nM
EC50 (cytochrome c; EC50 for free calcium, read-out: EC50 (Ca2+, Cytochrome c, 100 mM KCl)): 220 nM
cytochrome c reduction activity compared with wild type eNOS (cytochrome c; FIG. 6B): significant increase in activity
Km (cytochrome c; absence of CaM): 2 µM
Km (cytochrome c; presence of CaM): 1.9 µM
Kcat − CaM (NADPH, Cytochrome c) (cytochrome c; NADPH dependence, absence of CaM): 4.83 ± 0.15 s⁻¹
Kcat − CaM (NADPH, Cytochrome c) (cytochrome c; NADPH dependence, absence of CaM, listed as eNOS S1179D): 4.83 s⁻¹
Kcat + CaM (NADPH, Cytochrome c) (cytochrome c; NADPH dependence, presence of CaM): 14 s⁻¹ and 14 ± 0.983 s⁻¹
basal cytochrome c reduction, S1179D compared with wild type eNOS (cytochrome c; absence of CaM): 4 fold
cytochrome c reduction, first value of pair (with superoxide dismutase) (cytochrome c; absence of CaM): 278 ± 9 min⁻¹
cytochrome c reduction, second value of pair (without superoxide dismutase) (cytochrome c; absence of CaM): 288 ± 7 min⁻¹
Kcat (Ca2+, Cytochrome c, 100 mM KCl) (cytochrome c; calcium activation): 63.3 ± 0.9 s⁻¹
maximal turnover rate, FIG. 8D (cytochrome c; calcium-dependent cytochrome c reduction): 3810 min⁻¹
maximal turnover rate, FIG. 8B (cytochrome c; calmodulin-dependent cytochrome c reduction): 1400 min1
reductase activity after calcium chelation with EGTA (cytochrome c; highest concentration of EGTA): residual reductase activity was found
cytochrome c reduction with superoxide dismutase (cytochrome c; presence of CaM): 1179 ± 43 min⁻¹
cytochrome c reduction without superoxide dismutase (cytochrome c; presence of CaM): 1518 ± 19 min⁻¹
relative decrease in cytochrome c activity in the presence of superoxide dismutase (cytochrome c; presence of CaM): 22%
CaM-stimulated cytochrome c reduction (cytochrome c; presence of CaM, n=3-5): 1272 ± 55 min⁻¹
level of stimulation of cytochrome c reduction by CaM (cytochrome c; with vs without CaM): 3 fold
Kcat (CaM, L-Citrulline) (eNOS [1]): 0.717 ± 0.033 s⁻¹
Kcat (CaM, L-Citrulline) (eNOS [1]; listed as S1179D eNOS): 0.717 s⁻¹
EC50 (eNOS [1]; EC50 for CaM, NOS activity): 7 nM
sensitivity of NO production to the addition of EGTA (eNOS [2]; 0-600 μM EGTA, 200 μM calcium): less sensitive to the addition of EGTA
NO production after calcium chelation with EGTA (eNOS [2]; 600 μM EGTA, 200 μM calcium): residual activity was still detected
EC50 (eNOS [2]; EC50 for free calcium, NO production, 250 nM CaM, read-out: EC50 (Ca2+, Hemoglobin capture, 100 mM KCl)): 250 nM
calcium dependence of NO production after normalization for maximal activity (eNOS [2]; FIG. 8C, p<0.05): slightly increased
Km (eNOS [2]; Km for L-arginine, read-out: Km (substrate Arginine, Hemoglobin capture)): 2.5 µM
Km (eNOS [2]; Km for NADPH, in presence of CaM, read-out: Km (NADPH, Hemoglobin capture)): 36 µM
Kcat (NADPH, Hemoglobin capture) (eNOS [2]; NADPH dependence, in presence of CaM): 0.883 ± 0.05 s⁻¹
increase in the Km for NADPH, S1179D compared with wild type eNOS (eNOS [2]; NO production, presence of CaM): 4 fold
Kcat (Ca2+, Hemoglobin capture, 100 mM KCl) (eNOS [2]; calcium activation, 250 nM CaM): 1.67 ± 0.05 s⁻¹
maximal turnover rate, FIG. 8C (eNOS [2]; calcium-dependent NO production): 100 min1
maximal turnover rate, FIG. 8A (eNOS [2]; calmodulin-dependent hemoglobin capture): 43 min⁻¹
Kcat (substrate Arginine, Hemoglobin capture) (eNOS [2]): 1.4 ± 0.1 s⁻¹
Kcat (substrate Arginine, Hemoglobin capture) (eNOS [2]; listed as S1179D eNOS): 1.4 ± 0.1 s⁻¹
NOS activity in lysates (eNOS [3]): 131.8±36.7 pmol L-citrulline generated/mg protein
